{
  "source": "patent US20230159619A1",
  "about": "“COMPOSITIONS AND METHODS FOR REGULATING IMMUNE SYSTEM ACTIVITY” (Olema Pharmaceuticals, Inc., priority 2017, published 2023)",
  "molecules": {"B1": {"name": "Zap70dnm: polypeptide including a nuclear export signal and a dominant negative Zap-70 moiety, SEQ ID NO: 10 (protein)", "chain": "MNELALKLAGLDINKTMPDPAAHLPFFYGSISRAEAEEHLKLAGMADGLFLLRQCLRSLGGYVLSLVHDVRFHHFPIERQLNGTYAIAGGKAHCGPAELCEFYSRDPDGLPCNLRKPCNRPSGLEPQPGVFDCLRDAMVRDYVRQTWKLEGEALEQAIISQAPQVEKLIATTAHERMPWYHSSLTREEAERKLYSGAQTDGKFLLRPRKEQGTYALSLIYGKTVYHYLISQDKAGKYCIPEGTKFDTLWQLVEYLKLKADGLIYCLKEACPNSSASNASGAAAPTLPAHPSTLT"}, "B2": {"name": "LCK(1-266): dominant negative LCK signaling moiety, SEQ ID NO: 17 (protein)", "chain": "MGCGCSSHPEDDWMENIDVCENCHYPIVPLDGKGTLLIRNGSEVRDPLVTYEGSNPPASPLQDNLVIALHSYEPSHDGDLGFEKGEQLRILEQSGEWWKAQSLTTGQEGFIPFNFVAKANSLEPEPWFFKNLSRKDAERQLLAPGNTHGSFLIRESESTAGSFSLSVRDFDQNQGEVVKHYKIRNLDNGGFYISPRITFPGLHELVRHYTNASDGLCTRLSRPCQTQKPQKPWWEDEWEVPRETLKLVERLGAGQFGEVWMGYYNG"}, "B3": {"name": "ZAP70dn(1-278): dominant negative signaling moiety, ZAP70 amino acids 1-278, lacks a functional kinase domain, SEQ ID NO: 2 (protein)", "chain": "MPDPAAHLPFFYGSISRAEAEEHLKLAGMADGLFLLRQCLRSLGGYVLSLVHDVRFHHFPIERQLNGTYAIAGGKAHCGPAELCEFYSRDPDGLPCNLRKPCNRPSGLEPQPGVFDCLRDAMVRDYVRQTWKLEGEALEQAIISQAPQVEKLIATTAHERMPWYHSSLTREEAERKLYSGAQTDGKFLLRPRKEQGTYALSLIYGKTVYHYLISQDKAGKYCIPEGTKFDTLWQLVEYLKLKADGLIYCLKEACPNSSASNASGAAAPTLPAHPSTLT"}},
  "format_in_all_cases": "cell-based, human",
  "key": {"NFAT-Luciferase reporter [1]": {"system": "NFAT-Luciferase reporter", "assay": "NFAT-Luciferase reporter assay, endoxifen dose response (Example 4)", "conditions": "Jurkat E6.1 cells, anti-TCR antibody clone 305, endoxifen 0.05-1000 nM, 6 hours", "text": "To examine whether the concentration of endoxifen affected the level of inhibition of T cell activity by an endoxifen-responsive dominant negative Zap-70 polypeptide, Jurkat E6.1 cells (purchased from ATCC (Manassas, Va.)) were transiently transfected with an NFAT-Luciferase reporter construct and a test construct of (1) a vector encoding a dominant negative Zap70 moiety, as described in Example 2 (“Zap70dnm”), or (2) a vector encoding an endoxifen-responsive dominant negative Zap70 polypeptide, including an ER(T2) domain operatively linked to a dominant negative Zap70 moiety, as described in Example 1 (“Zap70dnm-ER(T2)”). The transient transfections were performed using LTX and PLUS transfection reagent (ThermoFisher Scientific) according to manufacturer's protocols.\nTransfected cells were treated with an anti-TCR antibody, clone 305, which stimulated T cell activity. […]\n(§1) After 6 hours, luciferase activity was assayed with Bright-Glo substrate according to manufacturer's protocols (Promega). Luminescence was detected on the Varioskan Lux (ThermoFisher Scientific) plate reader at a 1 second interval. The luminescence was measured and reported in relative light units (RLU). […]"}, "NFAT-Luciferase reporter [2]": {"system": "NFAT-Luciferase reporter", "assay": "NFAT-Luciferase reporter assay in transiently transfected Jurkat E6.1 cells (Example 3)", "text": "One outcome of T cell activation is the expression of Nuclear Factor of Activated T cells (NFAT) transcription factors. Accordingly, a construct containing a reporter gene, such as firefly luciferase (Luc), under the control of an NFAT response element can be used to assess T cell activity. Such a construct can either be transiently transfected into cells (e.g., Jurkat cells, which are an immortalized line of human T cells) or stably integrated into a cell line (e.g., a derivative Jurkat cell line). These reporter genes can be used to measure activation, or inhibition, of T cell activation pathways.\nTo examine whether an endoxifen-responsive dominant negative Zap-70 polypeptide could inhibit T cell activity resulting in NFAT-luciferase expression, Jurkat E6.1 cells (purchased from ATCC (Manassas, Va.)) were transiently transfected with an NFAT-Luciferase reporter construct and a test construct of (1) a control vector (“vector”), (2) a vector encoding a dominant negative Zap70 moiety, as described in Example 2 (“Zap70dnm”), or (3) a vector encoding an endoxifen-responsive dominant negative Zap70 polypeptide, including an ER(T2) domain operatively linked to a dominant negative Zap70 moiety, as described in Example 1 (“Zap70dnm-ER(T2)”). The transient transfections were performed using LTX and PLUS transfection reagent (ThermoFisher Scientific) according to manufacturer's protocols.\nTransfected cells were treated in the absence or presence of 1:30 Immunocult™ CD3/CD28/CD2 tetrameric antibody mixture (StemCell Technologies, Canada) (“α-TCR”), which stimulates T cell activity. […]\nas §1, with “19” for “6”"}, "NFAT-Luciferase reporter [3]": {"system": "NFAT-Luciferase reporter", "assay": "NFAT-Luciferase reporter assay with LCK(1-266) constructs (Example 11)", "conditions": "Jurkat E6.1 cells, α-CD3 and α-CD28, with or without endoxifen, compared to empty vector controls", "text": "(§2) To provide a means for assessing T cell activity, a construct containing a reporter gene, such as firefly luciferase (Luc), under the control of an NFAT response element can be used, as described, e.g., in Example 3. In the present Example, Jurkat E6.1 cells were transiently transfected with an NFAT-Luciferase reporter construct, as well as one of (a) empty vector control; (b) an expression construct encoding LCK(1-266); and (c) an expression construct encoding LCK(1-266)-ER(T12). Transient transfections were performed using LTX and PLUS transfection reagent (ThermoFisher Scientific) according to manufacturer's protocols.\nTransfected cells were treated in the absence or presence of 1:80 dilution of Immunocult CD3/CD28 tetrameric antibody mixture (StemCell Technologies, Canada), which stimulated T-cell activity. Stimulated cells were then further treated with RPMI 1640 media plus 4.8% FBS stripped with charcoal dextran (ThermoFisher Scientific), either without Z-endoxifen or with 100 nM Z-endoxifen (Axon-Medchem). Luciferase activity (luminescence) was measured and reported as percent induction of NFAT-Luciferase."}, "NFAT-Luciferase reporter [4]": {"system": "NFAT-Luciferase reporter", "assay": "NFAT-Luciferase reporter assay with ZAP70dn(1-278) constructs (Example 10)", "conditions": "Jurkat E6.1 cells, αTCR+αCD28, with or without endoxifen, compared to empty vector controls", "text": "as §2, with “immune pathway” for “T cell”, “construct” for “construct,”, “vector;” for “vector control;”, “ZAP70dn(1-278);” for “LCK(1-266); and”, “ZAP70dn(1-278)-ER(T2); and (d) an expression construct encoding ZAP70dn(1-278)-ER(T12).” for “LCK(1-266)-ER(T12).”\nA first set of transfected cells was treated in the absence or presence of 1:30 dilution of Immunocult CD3/CD28/CD2 tetrameric antibody mixture (StemCell Technologies, Canada), which stimulated T-cell activity. […] Luciferase activity (luminescence) was measured and reported as a percentage induction of NFAT-Luciferase.\nA further set of transfected cells was treated in the absence or presence of 0.25 μg/ml C305 (αTCR, Sigma-Aldrich) plus 2 μg/ml αCD28.2 (Biolegend), which stimulated T-cell activity. […] Luciferase activity (luminescence) was measured and reported in relative light units (RLU)."}},
  "data": [
    {"molecule": "B1", "values": [
      {"measurement": "luciferase expression from the NFAT-luciferase construct", "setting": "NFAT-Luciferase reporter [1]", "result": "low"},
      {"measurement": "luciferase expression from the NFAT-luciferase construct", "setting": "NFAT-Luciferase reporter [2]; vehicle (not treated with α-TCR or endoxifen)", "result": "no luciferase expression was detected"},
      {"measurement": "luciferase expression from the NFAT-luciferase construct", "setting": "NFAT-Luciferase reporter [2]; α-TCR plus 100 nM endoxifen, 19 hours", "result": "low and nearly equivalent to the luciferase expression observed from sample 5"},
      {"measurement": "luciferase expression from the NFAT-luciferase construct", "setting": "NFAT-Luciferase reporter [2]; α-TCR, no endoxifen, 19 hours", "result": "low"}
    ]},
    {"molecule": "B2", "values": [
      {"measurement": "luciferase reporter expression (percent induction of NFAT-Luciferase)", "setting": "NFAT-Luciferase reporter [3]", "result": "substantially reduced expression of luciferase reporter"}
    ]},
    {"molecule": "B3", "values": [
      {"measurement": "luciferase reporter expression (RLU)", "setting": "NFAT-Luciferase reporter [4]", "result": "substantially reduced expression of luciferase reporter"}
    ]}
  ]
}
